Values of other authors, collected in PMC13371949 (Journal of peptide science : an official publication of the …, 2025).

Columns and labels:
[1] = previous work

In the case of glucagon [glucagon control], the “time to fibril formation in solution” value [1] is given as ~ 11 hours, the isoelectric point is given as “near neutral” and the “solubility at pH 7” value (pH 7) is given as “limited solubility”.
